What was measured:
mouse AT1b receptor [1] = experiment: Emulsion autoradiography of 125I-[Sar1,Ile8]-Ang II binding to transfected COS-7 cells (positive control); details: 1 uM DuP753; 200 pM radioligand, 2 h, room temperature
Protocol: cDNA prepared from size-fractionated (>1 kb) poly(A)^+ RNA (Sprague-Dawley whole rat fetus, 18 days postcoitum) was ligated into an expression vector pcDNAI (Invitrogen), and amplified in 900 pools of 1,000 clones. Plasmid DNA prepared from every 8 pools by the alkali lysis method was transfected over 2-3 h using DEAE-dextran/chloroquine into COS-7 cells grown on glass chamber slides (Nunc) (Mathews, L. S. & Vale, W. W. Cell 65, 973-982 (1991)). […] Cells were then washed four times with cold 50 mM Tris-HCl, pH 7.4, fixed with 0.1% glutaraldehyde at 4 C and subjected to emulsion autoradiography (Mathews, L. S. & Vale, W. W. Cell 65, 973-982 (1991)). […] Positive pool (RF904) which gave 20 DuP753-resistant positive cells was divided into subpools and rescreened, and after three rounds of screening a single clone pMRAT2 was isolated. Sequencing of both strands of clone pMRAT2 was done by the dideoxy chain termination method with Sequenase (USB).

rat AT2 receptor = target: T1, rat AT2 receptor (Rattus norvegicus, UniProt P35351); experiment: Radioligand binding / displacement of 125I-CGP42112A on membranes of pMRAT2-transfected COS-7 cells; details: for order of inhibition potency (competition profiles): displacement of 125I-CGP42112A
T1 construct: pMRAT2, a rat AT2 receptor full-length cDNA cloned into the expression vector pcDNA I; expressed in transfected cells; host or cells: COS-7 (transient)
T1 sequence (P35351 1-363): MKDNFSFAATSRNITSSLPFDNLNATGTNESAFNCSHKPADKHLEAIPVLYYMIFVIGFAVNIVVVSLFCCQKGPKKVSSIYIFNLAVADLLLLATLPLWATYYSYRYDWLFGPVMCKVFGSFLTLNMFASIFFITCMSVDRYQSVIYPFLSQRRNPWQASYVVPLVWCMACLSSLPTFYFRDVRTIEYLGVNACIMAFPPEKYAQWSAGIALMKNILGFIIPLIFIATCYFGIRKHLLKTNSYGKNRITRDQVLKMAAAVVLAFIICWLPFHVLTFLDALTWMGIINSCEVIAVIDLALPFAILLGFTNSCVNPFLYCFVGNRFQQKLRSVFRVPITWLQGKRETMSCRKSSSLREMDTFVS
Protocol: cDNA prepared from size-fractionated (>1 kb) poly(A)^+ RNA (Sprague-Dawley whole rat fetus, 18 days postcoitum) was ligated into an expression vector pcDNAI (Invitrogen), and amplified in 900 pools of 1,000 clones. […] Sequencing of both strands of clone pMRAT2 was done by the dideoxy chain termination method with Sequenase (USB).
2 h after incubation at room temperature, bound and free ligands were separated with GF/C filters (Whatman). […] Each experiment was carried out at least twice in duplicate, and the results shown here represent one experiment.

mouse AT2 receptor = target: T2, mouse AT2 receptor (Mus musculus, UniProt P35374); experiment: [125I]CGP42112A binding / displacement on membranes of COS-7 cells transfected with mouse AT2 receptor cDNA (MC5); details: 0.2 nM [125I]CGP42112A
T2 construct: expressed in transfected cells; host or cells: COS-7
T2 sequence (P35374 1-363): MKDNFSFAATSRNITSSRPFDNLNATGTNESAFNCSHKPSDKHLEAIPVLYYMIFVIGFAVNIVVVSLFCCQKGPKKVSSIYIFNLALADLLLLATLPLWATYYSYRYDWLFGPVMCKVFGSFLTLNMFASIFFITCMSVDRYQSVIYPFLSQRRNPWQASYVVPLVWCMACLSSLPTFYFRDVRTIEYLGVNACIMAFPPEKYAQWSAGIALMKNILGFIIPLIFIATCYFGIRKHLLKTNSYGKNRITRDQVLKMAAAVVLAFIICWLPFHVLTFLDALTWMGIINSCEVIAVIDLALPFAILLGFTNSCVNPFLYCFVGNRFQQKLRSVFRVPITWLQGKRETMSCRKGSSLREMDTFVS
From the text: Materials. […] Louis, Mo.). […] Expression in COS-7 Cells and Ligand Binding Assay. […] The transfected cells were harvested and homogenized. The 100,000×g pellet of this homogenate was suspended and used as a membrane fraction.

cloned AT2 receptor [2] = experiment: Intracellular calcium (fura-2) in AT2-transfected COS-7 cells; assay type: cell-based, rat; details: 1 uM Ang II
Protocol: (§1) Intracellular IP3 levels were measured using radioreceptor assay (NEN). […] Cell fluorescence was measured with excitation at 340 nm and 380 nm. Ionomycin (10 uM) and EGTA (10 mM) were used for calibration.

cloned AT2 receptor [3] = experiment: Intracellular IP3 levels in AT2-transfected COS-7 cells (radioreceptor assay); assay type: cell-based, rat; details: 1 uM Ang II, 15 sec, 37 C
Protocol: as §1

[4] = target: rat AT2 receptor (angiotensin II type 2 receptor), clone pMRAT2 (rat); experiment: radioligand binding with DTT, membranes of COS-7 cells transfected with pMRAT2
[5] = target: rat AT2 receptor (angiotensin II type 2 receptor), clone pMRAT2 (rat); experiment: radioligand saturation binding, crude membranes of COS-7 cells transiently transfected with pMRAT2
[6] = target: rat AT2 receptor (angiotensin II type 2 receptor), clone pMRAT2 (rat); experiment: radioligand saturation binding, crude membranes of S293RAT2 cells (293 cells stably transfected with pMRAT2)
[7] = target: mouse AT2 receptor (angiotensin II type 2 receptor), clone MC5 (mouse); experiment: radioligand saturation binding with Scatchard plot, membrane fraction of COS-7 cells transfected with mouse AT2 receptor cDNA
[8] = target: T3, rat AT2 receptor (angiotensin II type 2 receptor), clone pMRAT2 (rat); experiment: expression cloning: emulsion autoradiography of transfected COS-7 cells, 200 pM radioligand with or without DuP753
T3 chain: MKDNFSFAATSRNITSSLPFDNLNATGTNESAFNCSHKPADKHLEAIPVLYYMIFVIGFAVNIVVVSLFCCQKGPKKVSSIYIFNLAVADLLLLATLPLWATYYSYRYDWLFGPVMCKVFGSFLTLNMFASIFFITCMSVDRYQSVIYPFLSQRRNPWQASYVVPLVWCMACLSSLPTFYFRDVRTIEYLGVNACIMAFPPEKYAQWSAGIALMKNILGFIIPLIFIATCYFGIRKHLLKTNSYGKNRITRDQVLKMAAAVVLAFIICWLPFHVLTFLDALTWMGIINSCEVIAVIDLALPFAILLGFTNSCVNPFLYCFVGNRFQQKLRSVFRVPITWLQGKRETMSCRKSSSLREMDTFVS
Protocol: cDNA prepared from size-fractionated (>1 kb) poly(A)^+ RNA (Sprague-Dawley whole rat fetus, 18 days postcoitum) was ligated into an expression vector pcDNAI (Invitrogen), and amplified in 900 pools of 1,000 clones. Plasmid DNA prepared from every 8 pools by the alkali lysis method was transfected over 2–3 h using DEAE-dextran/chloroquine into COS-7 cells grown on glass chamber slides (Nunc) (Mathews, L. S. & Vale, W. W. Cell 65, 973–982 (1991)). […] Cells were then washed four times with cold 50 mM Tris-HCl, pH 7.4, fixed with 0.1% glutaraldehyde at 4 C and subjected to emulsion autoradiography (Mathews, L. S. & Vale, W. W. Cell 65, 973–982 (1991)). […] Sequencing of both strands of clone pMRAT2 was done by the dideoxy chain termination method with Sequenase (USB).

mouse AT1b receptor [9] = target: mouse AT1b receptor (mouse, UniProt P29755); experiment: emulsion autoradiography of COS-7 cells transfected with the mouse AT1b receptor clone, 200 pM radioligand

## CCCCc1nc(Cl)c(CO)n1Cc1ccc(-c2ccccc2-c2nn[nH]n2)cc1 [DuP753]
Mouse AT1b receptor [1]
  effect on positive staining (125I-[Sar1,Ile8]-Ang II binding): completely abolished
Rat AT2 receptor; 150 pM radioligand
  effect in competition (displacement of 125I-CGP42112A): no effect
Mouse AT2 receptor; at a concentration up to 10^-5 M
  competition of [125I]CGP42112A binding: virtually inactive

## Cc1cc(Cn2cnc3c2C[C@@H](C(=O)O)N(C(=O)C(c2ccccc2)c2ccccc2)C3)ccc1N(C)C [PD123319]
Rat AT2 receptor; 150 pM radioligand
  order of inhibition potency (competition profiles): [Sar^1,Ile^8 ]-Ang II=CGP42112A≥Ang II>PD123319^10,15 >Ang I
Mouse AT2 receptor
  rank order of competition of [125I]CGP42112A binding: [Sar^1,Ile^8 ]-Ang II=CGP42112A≥Ang II>PD123319>Ang I

## Ang I: Ang I, purchased from Sigma (DRVYIHPFHL)
Rat AT2 receptor; 150 pM radioligand
  order of inhibition potency (competition profiles): [Sar^1,Ile^8 ]-Ang II=CGP42112A≥Ang II>PD123319^10,15 >Ang I
Mouse AT2 receptor
  rank order of competition of [125I]CGP42112A binding: [Sar^1,Ile^8 ]-Ang II=CGP42112A≥Ang II>PD123319>Ang I

## Ang II: Angiotensin II is an octapeptide hormone
Cloned AT2 receptor [2]
  increase of intracellular calcium: failed to increase
Cloned AT2 receptor [3]
  increase of IP3: failed to increase

## Ang II: Angiotensin II is an octapeptide hormone (DRVYIHPF)
Mouse AT2 receptor
  rank order of competition of [125I]CGP42112A binding: [Sar^1,Ile^8 ]-Ang II=CGP42112A≥Ang II>PD123319>Ang I

## CGP42112A
Rat AT2 receptor; 150 pM radioligand
  order of inhibition potency (competition profiles): [Sar^1,Ile^8 ]-Ang II=CGP42112A≥Ang II>PD123319^10,15 >Ang I
Rat AT2 receptor; with DTT
  increase of binding affinity by DTT: 50-100%
Mouse AT2 receptor
  rank order of competition of [125I]CGP42112A binding: [Sar^1,Ile^8 ]-Ang II=CGP42112A≥Ang II>PD123319>Ang I

## CGP42112A (unlabelled) (ligand)
[4]
  increase of binding affinity by DTT: 50 to 100%

## [Sar^1,Ile^8 ]-Ang II: a non-selective Ang II receptor antagonist
Rat AT2 receptor; 150 pM radioligand
  order of inhibition potency (competition profiles): [Sar^1,Ile^8 ]-Ang II=CGP42112A≥Ang II>PD123319^10,15 >Ang I
Mouse AT2 receptor
  rank order of competition of [125I]CGP42112A binding: [Sar^1,Ile^8 ]-Ang II=CGP42112A≥Ang II>PD123319>Ang I

## [^125 I]CGP42112A (ligand)
[5]
  Kd: 170 pM
[6]
  Kd: 180 pM
[7]
  Kd: 120 pM

B1: ^125 I-[Sar^1,Ile^8]-Ang II (peptide)
peptide: GRVYIHPI
modifications: Sar at position 1, Ile at position 8, 125I label, as printed ^125 I-[Sar^1,Ile^8]-Ang II
[8]
  binding result: binds
Mouse AT1b receptor [9]
  binding result: binds

From patent publication US5556780A, “CDNAS encoding mouse and rat type-2 angiotensin II receptors and their expression in host cells” (The Board of Trustees for the Leland Stanford Junior …, priority 1993, dated 1996)
